These results are taken from the supplement of paper PMC9112550, “Optimization of the antimicrobial peptide Bac7 by deep mutational scanning” (BMC Biology, 2022).

This series deals with Escherichia coli TOP10. Nature of the series: shrunken log2 fold change of peptide-encoding DNA abundance (4.5 h post-induction vs induction); higher = less antimicrobial activity (less host growth inhibition). To be noted: time post-induction: 4.5 h; library: site-saturation at positions 5, 18, 19, 20.
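Note: peptides expressed intracellularly from a pBAD plasmid library in pooled LB shake-flask culture, induced with 0.3% L-arabinose, DNA abundance read by NGS, three biological replicates, DESeq2 with apeglm shrinkage.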

Regarding RRIRVRPPRLPRPRPRPATWPRP, the “shrunken log2 fold change” value came out at 0.218.
Regarding RRIRLRPPRLPRPRPRPAHIPRP, the “shrunken log2 fold change” value is 0.0196.
As for RRIRKRPPRLPRPRPRPEVDPRP, the “shrunken log2 fold change” value amounted to 3.04.
As to RRIRRRPPRLPRPRPRPLTHPRP, the “shrunken log2 fold change” value is 0.275.
As for RRIRFRPPRLPRPRPRPRCSPRP, the “shrunken log2 fold change” value is 0.717.
RRIRLRPPRLPRPRPRPAYWPRP: the “shrunken log2 fold change” value was found to be 0.154.
Turning to RRIRNRPPRLPRPRPRPGPYPRP, the “shrunken log2 fold change” value is -0.00784.
With RRIRTRPPRLPRPRPRPSNFPRP, the “shrunken log2 fold change” value is -0.0603.
Consider RRIRYRPPRLPRPRPRPDCMPRP, for which the “shrunken log2 fold change” value was determined as 0.0186.
With RRIRHRPPRLPRPRPRPFNVPRP, the “shrunken log2 fold change” value came to 1.22.
In the case of RRIRNRPPRLPRPRPRPLQVPRP, the “shrunken log2 fold change” value was -0.136.
RRIRGRPPRLPRPRPRPEDRPRP: the “shrunken log2 fold change” value is 0.23.
In the case of RRIRSRPPRLPRPRPRPVDHPRP it was -0.00391; in that of RRIRYRPPRLPRPRPRPCACPRP, 0.0891; in that of RRIRWRPPRLPRPRPRPTQNPRP, 0.637.
Take RRIRDRPPRLPRPRPRPFKFPRP: the “shrunken log2 fold change” value is -0.122.
Regarding RRIRQRPPRLPRPRPRPAHCPRP, the “shrunken log2 fold change” value came to 0.0134.
For the sequence RRIRPRPPRLPRPRPRPQLCPRP, the “shrunken log2 fold change” value is 0.444.
Regarding RRIRWRPPRLPRPRPRPRRLPRP, the “shrunken log2 fold change” value came to 0.474.
Regarding RRIRWRPPRLPRPRPRPTQKPRP, the “shrunken log2 fold change” value was 0.482.
Regarding RRIRDRPPRLPRPRPRPNAPPRP, the “shrunken log2 fold change” value is 0.209.
In the case of RRIRTRPPRLPRPRPRPVPFPRP, the “shrunken log2 fold change” value came to 0.0392.
In the case of RRIRYRPPRLPRPRPRPDHYPRP it was -0.0219; in that of RRIRDRPPRLPRPRPRPHWSPRP, -0.132; in that of RRIRPRPPRLPRPRPRPCMTPRP, -0.106.
Turning to RRIRWRPPRLPRPRPRPMPQPRP, the “shrunken log2 fold change” value came to 0.178.
In the case of RRIRSRPPRLPRPRPRPNWQPRP it was 0.0694.
With RRIRIRPPRLPRPRPRPLLVPRP the figure was -0.565.
RRIRHRPPRLPRPRPRPHCQPRP: the “shrunken log2 fold change” value is -0.0776.
In the case of RRIRSRPPRLPRPRPRPTVGPRP it was 0.187; in that of RRIRCRPPRLPRPRPRPPMFPRP, -0.121.
Turning to RRIRHRPPRLPRPRPRPWHIPRP, the “shrunken log2 fold change” value is -0.864.
Turning to RRIRTRPPRLPRPRPRPQQEPRP, the “shrunken log2 fold change” value worked out at 0.0173.
Take RRIRYRPPRLPRPRPRPRSMPRP: the “shrunken log2 fold change” value was -0.622.
In the case of RRIRWRPPRLPRPRPRPIFYPRP, the “shrunken log2 fold change” value is -0.0652.
With RRIRPRPPRLPRPRPRPMGRPRP, the “shrunken log2 fold change” value was -0.0125.
RRIRVRPPRLPRPRPRPPIHPRP: the “shrunken log2 fold change” value was 0.042.
For RRIRPRPPRLPRPRPRPRKNPRP, the “shrunken log2 fold change” value worked out at 0.296.
On to RRIRHRPPRLPRPRPRPIQQPRP, for which the “shrunken log2 fold change” value is -0.15.
With RRIRMRPPRLPRPRPRPCTQPRP, the “shrunken log2 fold change” value was -0.111.
Turning to RRIRERPPRLPRPRPRPTCAPRP, the “shrunken log2 fold change” value is -0.162.
Consider RRIRERPPRLPRPRPRPPAYPRP, for which the “shrunken log2 fold change” value is -0.173.
RRIRQRPPRLPRPRPRPSFVPRP: the “shrunken log2 fold change” value is -0.161.
In the case of RRIRSRPPRLPRPRPRPPWGPRP it was 0.317; in that of RRIRDRPPRLPRPRPRPDSQPRP, -0.0289; in that of RRIRWRPPRLPRPRPRPNMDPRP, 0.0467.
With RRIRGRPPRLPRPRPRPMIQPRP the figure was 0.522; with RRIRWRPPRLPRPRPRPDITPRP, 0.179; with RRIRARPPRLPRPRPRPCDDPRP, -0.0166.
RRIRFRPPRLPRPRPRPMEVPRP: the “shrunken log2 fold change” value is -0.00205.
With RRIRSRPPRLPRPRPRPPGCPRP the figure was 0.676.
For the sequence RRIRYRPPRLPRPRPRPKYRPRP, the “shrunken log2 fold change” value is -0.0133.
Take RRIRLRPPRLPRPRPRPSLQPRP: the “shrunken log2 fold change” value was -0.348.
Take RRIRQRPPRLPRPRPRPERIPRP: the “shrunken log2 fold change” value was -0.328.
Consider RRIRIRPPRLPRPRPRPPDTPRP, for which the “shrunken log2 fold change” value was -0.116.
In the case of RRIRMRPPRLPRPRPRPADEPRP, the “shrunken log2 fold change” value was -0.0062.
With RRIRGRPPRLPRPRPRPQMCPRP the figure was 0.522; with RRIRKRPPRLPRPRPRPATGPRP, 0.145; with RRIRTRPPRLPRPRPRPNIWPRP, 0.682.
For RRIRHRPPRLPRPRPRPTLEPRP, the “shrunken log2 fold change” value is 0.319.
As to RRIRNRPPRLPRPRPRPCCFPRP, the “shrunken log2 fold change” value is -0.278.
In the case of RRIRCRPPRLPRPRPRPGIYPRP it was -0.0438; in that of RRIRHRPPRLPRPRPRPSSTPRP, -0.741; in that of RRIRLRPPRLPRPRPRPVKGPRP, -0.00152.
Regarding RRIRVRPPRLPRPRPRPNGMPRP, the “shrunken log2 fold change” value is -0.32.
RRIRWRPPRLPRPRPRPMHLPRP: the “shrunken log2 fold change” value was -0.317.
Turning to RRIRMRPPRLPRPRPRPSCDPRP, the “shrunken log2 fold change” value came to 0.444.
For RRIRARPPRLPRPRPRPWYRPRP, the “shrunken log2 fold change” value was -0.099.
In the case of RRIRLRPPRLPRPRPRPFRRPRP, the “shrunken log2 fold change” value was -0.0943.
As for RRIRNRPPRLPRPRPRPCKRPRP, the “shrunken log2 fold change” value is -0.0122.
In the case of RRIRDRPPRLPRPRPRPQRPPRP, the “shrunken log2 fold change” value is 0.0335.
In the case of RRIRDRPPRLPRPRPRPCAGPRP, the “shrunken log2 fold change” value was determined as 0.0969.
As for RRIRNRPPRLPRPRPRPKRDPRP, the “shrunken log2 fold change” value was determined as 0.411.
As for RRIRKRPPRLPRPRPRPEYSPRP, the “shrunken log2 fold change” value is 0.0499.
For the sequence RRIRIRPPRLPRPRPRPWLWPRP, the “shrunken log2 fold change” value was -0.0533.
Consider RRIRSRPPRLPRPRPRPLHDPRP, for which the “shrunken log2 fold change” value was -0.0221.
As for RRIRGRPPRLPRPRPRPMWAPRP, the “shrunken log2 fold change” value stood at 0.925.
Turning to RRIRARPPRLPRPRPRPLTLPRP, the “shrunken log2 fold change” value is 0.0472.
With RRIRIRPPRLPRPRPRPTYMPRP the figure was -0.707.
In the case of RRIRARPPRLPRPRPRPVNEPRP, the “shrunken log2 fold change” value was found to be 0.356.
With RRIRQRPPRLPRPRPRPQRFPRP the figure was -0.0204.
For RRIRFRPPRLPRPRPRPQFGPRP, the “shrunken log2 fold change” value is -0.0484.
With RRIRVRPPRLPRPRPRPFYHPRP the figure was -0.502; with RRIRPRPPRLPRPRPRPIPNPRP, -0.353.
In the case of RRIRLRPPRLPRPRPRPVDFPRP it was 0.0727.
For the sequence RRIRSRPPRLPRPRPRPSIKPRP, the “shrunken log2 fold change” value was -0.613.
RRIRHRPPRLPRPRPRPCKYPRP: the “shrunken log2 fold change” value was 0.0259.
In the case of RRIRERPPRLPRPRPRPENRPRP it was -0.29; in that of RRIRARPPRLPRPRPRPMSHPRP, 0.148; in that of RRIRIRPPRLPRPRPRPGMSPRP, -0.15.
Regarding RRIRLRPPRLPRPRPRPHVYPRP, the “shrunken log2 fold change” value is -0.211.
For RRIRPRPPRLPRPRPRPDKEPRP, the “shrunken log2 fold change” value is -0.0375.
Consider RRIRLRPPRLPRPRPRPCTTPRP, for which the “shrunken log2 fold change” value stood at 0.0144.
For RRIRHRPPRLPRPRPRPPCPPRP, the “shrunken log2 fold change” value was -0.0235.
On to RRIRVRPPRLPRPRPRPAEKPRP, for which the “shrunken log2 fold change” value is 0.00294.
For RRIRCRPPRLPRPRPRPLRNPRP, the “shrunken log2 fold change” value was 0.272.
In the case of RRIRCRPPRLPRPRPRPWYTPRP, the “shrunken log2 fold change” value was -0.739.
As to RRIRSRPPRLPRPRPRPARTPRP, the “shrunken log2 fold change” value was found to be 0.293.
In the case of RRIRRRPPRLPRPRPRPFIVPRP, the “shrunken log2 fold change” value was -0.0553.
Regarding RRIRYRPPRLPRPRPRPLKWPRP, the “shrunken log2 fold change” value was -0.258.
For RRIRERPPRLPRPRPRPWVRPRP, the “shrunken log2 fold change” value is -0.122.
For the sequence RRIRERPPRLPRPRPRPKCRPRP, the “shrunken log2 fold change” value is -0.0625.
For RRIRERPPRLPRPRPRPIKNPRP, the “shrunken log2 fold change” value was -1.13.
On to RRIRPRPPRLPRPRPRPHAAPRP, for which the “shrunken log2 fold change” value worked out at 0.3.
With RRIRTRPPRLPRPRPRPRQNPRP the figure was 0.067.
As to RRIRPRPPRLPRPRPRPVPYPRP, the “shrunken log2 fold change” value was -0.253.
Consider RRIRPRPPRLPRPRPRPVWAPRP, for which the “shrunken log2 fold change” value turned out to be 0.278.
In the case of RRIRKRPPRLPRPRPRPEYCPRP it was 0.109.
Turning to RRIRMRPPRLPRPRPRPNIVPRP, the “shrunken log2 fold change” value was 0.0335.
In the case of RRIRPRPPRLPRPRPRPTGEPRP it was 0.396; in that of RRIRDRPPRLPRPRPRPDARPRP, 1.31; in that of RRIRDRPPRLPRPRPRPKLRPRP, -0.0184.
As for RRIRQRPPRLPRPRPRPNNFPRP, the “shrunken log2 fold change” value is -0.17.
Consider RRIRSRPPRLPRPRPRPQDKPRP, for which the “shrunken log2 fold change” value was -0.0231.
Turning to RRIRKRPPRLPRPRPRPPIFPRP, the “shrunken log2 fold change” value worked out at 0.269.
On to RRIRWRPPRLPRPRPRPHQRPRP, for which the “shrunken log2 fold change” value is -0.0218.
RRIRKRPPRLPRPRPRPTSIPRP: the “shrunken log2 fold change” value worked out at 0.208.
On to RRIRMRPPRLPRPRPRPRAVPRP, for which the “shrunken log2 fold change” value came to 0.989.
With RRIRERPPRLPRPRPRPQHLPRP the figure was 0.0167.
With RRIRSRPPRLPRPRPRPMCGPRP, the “shrunken log2 fold change” value was -0.145.
As for RRIRQRPPRLPRPRPRPQSYPRP, the “shrunken log2 fold change” value worked out at 0.015.
On to RRIRDRPPRLPRPRPRPMNWPRP, for which the “shrunken log2 fold change” value stood at 0.0175.
Regarding RRIRARPPRLPRPRPRPRKFPRP, the “shrunken log2 fold change” value is 0.421.
Turning to RRIRNRPPRLPRPRPRPFTTPRP, the “shrunken log2 fold change” value was -0.0245.
For the sequence RRIRWRPPRLPRPRPRPTGRPRP, the “shrunken log2 fold change” value is 0.536.
